Source: patent US20170081401A1 (CLOSED JOINT STOCK COMPANY BIOCAD, published 2017)

How the values were obtained:
[1] = biological target: T1, monkey IL-17A (Macaca mulatta) (Macaca mulatta, UniProt F6T3G5 24-155); test: BLI (OctetRed 96), BCD085 on AR2G sensors, monkey IL-17A as analyte, row 'Concentration (nm)' 17,2; 1:1 model; R^2 0,983707
Procedure: (§1) The affinity of BCD085 binding with human, monkey and rat IL-17A was analyzed on OctetRed 96 (ForteBio). BCD085 was non-specifically immobilized on the surface of amine reactive second-generation sensors (AR2G) according to the standard protocol described in the manufacturer's manual. The test was conducted at a temperature of 30° C. and using PBS with 0.1% Tween-20 and 0.1% BSA as a working buffer.
(§2) Binding curves (after subtracting a reference signal) were analyzed using Octet Data Analysis software (Version 7.0) in accordance with the standard procedure and using 1:1 interaction model.

human IL-17A [2] = biological target: T2, human IL-17A (human, UniProt Q16552 20-155, limits assumed); test: cell-based or functional assay
rat IL-17A = biological target: T3, rat IL-17A (rat, UniProt Q61453 18-150, limits assumed); test: BLI, OctetRed 96, BCD085 immobilized on AR2G sensors, IL-17A as analyte
T3 sequence (looked up): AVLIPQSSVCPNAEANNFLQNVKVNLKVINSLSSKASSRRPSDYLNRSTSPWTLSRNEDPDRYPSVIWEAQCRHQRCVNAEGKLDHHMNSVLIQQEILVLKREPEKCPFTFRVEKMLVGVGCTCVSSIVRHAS
Procedure: as §1, §2

[3] = biological target: T1, monkey IL-17A (Macaca mulatta); test: BLI (OctetRed 96), BCD085 on AR2G sensors, monkey IL-17A as analyte, row 'Concentration (nm)' 34,4; 1:1 model; R^2 0,964905
Procedure: as §1, §2

human IL-17A [4] = biological target: T2, human IL-17A; test: BLI (OctetRed 96), BCD085 on AR2G sensors, human IL-17A as analyte, row 'Concentration (nm)' 34,3; 1:1 model; R^2 0,937248
Procedure: as §1, §2

human IL-17A [5] = biological target: T2, human IL-17A; test: BLI, OctetRed 96, BCD085 immobilized on AR2G sensors; human against monkey IL-17A
Procedure: as §1, §2

[6] = biological target: T1, monkey IL-17A (Macaca mulatta); test: BLI (OctetRed 96), BCD085 on AR2G sensors, monkey IL-17A as analyte, row 'Concentration (nm)' 68,7; 1:1 model; R^2 0,956946
Procedure: as §1, §2

human IL-17A [7] = biological target: T2, human IL-17A; test: BLI (OctetRed 96), BCD085 on AR2G sensors, human IL-17A as analyte, row 'Concentration (nm)' 68,6; 1:1 model; R^2 0,973327
Procedure: as §1, §2

T1 sequence (F6T3G5 entry or part of it): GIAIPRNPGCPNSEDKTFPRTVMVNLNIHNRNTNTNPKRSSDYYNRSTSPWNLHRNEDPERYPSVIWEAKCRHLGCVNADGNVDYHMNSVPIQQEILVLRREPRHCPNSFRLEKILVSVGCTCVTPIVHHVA
T2 sequence (Q16552 20-155 limits assumed): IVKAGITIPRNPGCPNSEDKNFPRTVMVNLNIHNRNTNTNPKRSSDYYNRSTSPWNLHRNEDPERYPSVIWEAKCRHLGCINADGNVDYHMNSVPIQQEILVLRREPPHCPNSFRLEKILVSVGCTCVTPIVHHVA

B1: BCD085 monoclonal anti-IL-17A antibody (antibody, V domains shown)
VH: QVQLVQSGGGLVQPGGSLRLSCAADGFTFSNYAMSWVRQAPGKGLEWVSRIEGGIGSSTYAVDSVKDRFTISRDDAKNTLYLQMSSLKTEDTAVYYCAVNYYGMYYWGQGTLVTVSS
VL: QSVLTQPPSVSVAPGKTVTISCTGTSEDVGFGNYVSWYQHLPGTAPKLLIYRVNTRPSGVPDRFSGSQSGNTASLTISGLQAEDEADYYCSSYKAGGTYVFGGGTKLTVLG
notes: Full-length antibody produced in CHO-S cells; also called the candidate; monoclonal anti-IL-17A antibody of the invention
B1 was tested, and the Kd [1] was 2.22 nM, the “IC50, blocking of IL-17-induced IL-6 production by human HT1080 cells (40 ng/ml IL-17 + 20 ng/ml TNF-alpha), IL-6 measured by ELISA” value (human IL-17A [2]) was 0.04 nM and the binding result (rat IL-17A) was “no binding (tested: 126 nM (highest concentration titrated))”. The Kd [3] was 4.15 nM, the Kd (human IL-17A [4]) was less than 0.001 nM and the “fold stronger affinity than to monkey IL-17A” value (human IL-17A [5]) was 1000 fold. It also gave a Kd [6] of 5.97 nM and a Kd (human IL-17A [7]) of less than 0.001 nM.
